Where a chain is given by its changes, count along the chain named. Read-outs that look alike come from different tables or passages of the source. Each block holds one binder with its values, some of them ahead of it.
What was measured:
CEA on MKN45 cells [1] = target: T1, CEA on MKN45 cells (UniProt P06731 35-685); test: FACS, MKN45 cells
T1 construct: whole, on cells
T1 sequence (looked up): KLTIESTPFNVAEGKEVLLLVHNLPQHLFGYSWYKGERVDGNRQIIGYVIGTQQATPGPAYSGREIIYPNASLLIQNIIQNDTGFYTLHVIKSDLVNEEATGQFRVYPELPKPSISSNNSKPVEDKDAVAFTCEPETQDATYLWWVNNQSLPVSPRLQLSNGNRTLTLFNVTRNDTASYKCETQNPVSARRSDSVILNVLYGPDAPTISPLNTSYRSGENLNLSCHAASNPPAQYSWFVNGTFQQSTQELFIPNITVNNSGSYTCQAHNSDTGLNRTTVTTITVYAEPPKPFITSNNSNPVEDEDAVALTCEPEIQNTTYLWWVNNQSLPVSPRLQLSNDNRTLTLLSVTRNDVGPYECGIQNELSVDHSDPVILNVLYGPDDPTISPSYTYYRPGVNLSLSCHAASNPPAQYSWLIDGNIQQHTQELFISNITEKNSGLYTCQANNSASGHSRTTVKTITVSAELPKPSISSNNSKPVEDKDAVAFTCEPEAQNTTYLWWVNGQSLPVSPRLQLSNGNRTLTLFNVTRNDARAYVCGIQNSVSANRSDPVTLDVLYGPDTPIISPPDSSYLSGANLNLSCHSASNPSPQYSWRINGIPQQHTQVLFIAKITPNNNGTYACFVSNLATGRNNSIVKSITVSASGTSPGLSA

CEA on MKN45 cells [2] = target: T1, CEA on MKN45 cells; test: FACS, MKN45 cells; remark: listed apart in the source
human PDL1-his = target: T2, human PDL1-his (human, UniProt Q9NZQ7 19-239); test: SPR Biacore T200, antibody captured on Protein A chip
T2 construct: bought; also called hPDL1
T2 sequence (Q9NZQ7 19-239 limits assumed): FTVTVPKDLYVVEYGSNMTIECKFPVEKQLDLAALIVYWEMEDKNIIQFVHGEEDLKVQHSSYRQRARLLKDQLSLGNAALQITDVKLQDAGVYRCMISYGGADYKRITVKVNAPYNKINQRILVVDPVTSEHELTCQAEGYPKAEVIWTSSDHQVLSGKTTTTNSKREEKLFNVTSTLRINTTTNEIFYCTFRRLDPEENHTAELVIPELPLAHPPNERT
Protocol: (§1) After dissociation was completed for each cycle, the biosensor chip was washed with 10 mM Gly-HCl at pH 1.5 for regeneration. Data were fitted using a 1:1 model.

human TIGIT-his = target: T3, human TIGIT-his (human, UniProt Q495A1 22-141, limits assumed); test: as above
T3 construct: bought; also called hTIGIT
T3 sequence (looked up): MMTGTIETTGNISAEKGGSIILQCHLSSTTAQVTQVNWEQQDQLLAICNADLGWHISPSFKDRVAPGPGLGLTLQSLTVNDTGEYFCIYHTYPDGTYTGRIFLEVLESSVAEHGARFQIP
Protocol: as §1

hP40 [3] = target: T4, hP40 (human, UniProt P29460 23-328); test: as above
T4 construct: bought
T4 sequence (looked up): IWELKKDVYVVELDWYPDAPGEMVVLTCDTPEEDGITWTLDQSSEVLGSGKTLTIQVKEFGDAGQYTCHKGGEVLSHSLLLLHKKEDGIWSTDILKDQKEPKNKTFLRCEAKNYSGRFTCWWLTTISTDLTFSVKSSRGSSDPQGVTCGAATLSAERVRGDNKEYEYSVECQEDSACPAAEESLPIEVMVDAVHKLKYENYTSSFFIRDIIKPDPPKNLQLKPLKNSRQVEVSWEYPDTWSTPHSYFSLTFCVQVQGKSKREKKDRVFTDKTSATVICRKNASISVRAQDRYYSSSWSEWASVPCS
Protocol: (§2) The affinity of a test antibody for an antigen protein was determined by using a Biacore T200 (GE) instrument. […] The data obtained from the experiment was fitted with BIAevaluation version 4.1, GE software using a (1:1) Langmuir model to obtain affinity values.

hBAFF [4] = target: T5, hBAFF (human, UniProt Q9Y275 134-285); test: as above
T5 construct: bought
Protocol: as §2

hP40 [5] = target: T4, hP40; test: ELISA
Protocol: (§3) For an antibody targeting a soluble protein, the binding activity of the antibody against the soluble protein was detected by ELISA. […] After the blocking was completed, the blocking solution was discarded; and the plate was washed 3 times with a PBST buffer (pH 7.4, PBS containing 0.1% tween-20). 100 μL of the antibody solution diluted in a gradient was added to each well, and the mixture was incubated at 37° C. for 1 h. After the incubation was completed, the plate was washed 3 times with PBST. […] The plate was washed 3 times with PBST. […] The reaction was stopped by adding 50 μL of 1 M H₂SO₄ to each well. The absorbance values at 450 nm were read on a microplate reader, the binding curves of the antibodies to an antigen were fitted with software, and the EC₅₀ values were calculated.

hBAFF [6] = target: T5, hBAFF; test: ELISA
Protocol: as §3

hTSLP = target: T6, hTSLP (human, UniProt Q969D9 29-159); test: ELISA
T6 construct: bought
Protocol: as §3

- EC50 (CEA on MKN45 cells [1]): 4.5 nM
- EC50 (CEA on MKN45 cells [2]): 6.45 nM
B1: N3 (antibody)
heavy: not shown
light: EIVLTQSPGTLSLSPGERATLSCRASQNINNRFLAWYQQRPGQAPRLLIYAASSRATGVPDRFSGSGSGTDFTLTISRLEAEDFAMYHCQQYGSFPRTFGQGTMVDIKSGAPRFLTRPKAFVVSVGKDATLSCQIVGNPTPQVSWEKDQQPVAAGARFRLAQDGDLYRLTILDLALGDSGQYVCRARNAIGEAFAAVGLQVDAEA

- EC50 (CEA on MKN45 cells [1]): 8.4 nM
B2: N6 (antibody)
heavy: not shown
light: B1 light with A111C, C133S, C184S

- Kd (human PDL1-his): 0.0417 nM
- koff (human PDL1-his): 8.67e-05 s⁻¹
- kon (human PDL1-his): 2.08e+06 M⁻¹ s⁻¹
B3: h1831K (antibody, human IgG1, kappa, V domains shown)
VH: QVQLVQSGAEVKKPGASVKVSCKASGYTFTSYWMHWVRQAPGQGLEWMGRITPSSGFAMYNEKFKNRVTMTRDTSTSTVYMELSSLRSEDTAVYYCARGGSSYDYFDYWGQGTTVTVSS
VL: DIVLTQSPASLAVSPGQRATITCRASESVSIHGTHLMHWYQQKPGQPPKLLIYAASKLESGVPARFSGSGSGTDFTLTINPVEAEDTANYYCQQSFEDPLTFGQGTKLEIKR
notes: also called P-IgG1; PDL1 monoclonal antibody

- EC50 (CEA on MKN45 cells [1]): 4.6 nM
- EC50 (CEA on MKN45 cells [2]): 5.93 nM
B4: N4 (antibody)
heavy: not shown
light: EIVLTQSPGTLSLSPGERATLSCRASQNINNRFLAWYQQRPGQAPRLLIYAASSRATGVPDRFSGSGSGTDFTLTISRLEAEDFAMYHCQQYGSFPRTFGQGTMVDIKQGSPPCFLRFPRPVRVVSGAEAELKCVVLGEPPPVVVWEKGGQQLAASERLSFPADGAEHGLLLTAALPTDAGVYVCRARNAAGEAYAAAAVTVLEPP

- EC50 (CEA on MKN45 cells [1]): 2.8 nM
B5: N7 (antibody)
heavy: not shown
light: B4 light with C114E, V182C

- EC50 (CEA on MKN45 cells [1]): 2.6 nM
B6: N8 (antibody)
heavy: not shown
light: B4 light with C114E, C134S, V182C, C185S

- Kd (human TIGIT-his): 0.0651 nM
- koff (human TIGIT-his): 0.000139 s⁻¹
- kon (human TIGIT-his): 2.14e+06 M⁻¹ s⁻¹
B7: h1708-04 (antibody, human IgG1, kappa, V domains shown)
VH: EVQLVQSGAEVKKPGASVKVSCKASGYTFTNYWMHWVRQAPGQGLEWMGRIDPDSTGSKYNEKFKTRVTMTRDTSTSTVYMELSSLRSEDTAVYYCAREGAYGYYFDYWGQGTLVTVSS
VL: DIQMTQSPSSLSASVGDRVTITCRASENIYSYLAWYQQKPGKSPKLLIYNARTLAEGVPSRFSGSGSGTDFTLTISSLQPEDFATYYCQYHSGSPLPFGGGTKVEIKR
notes: also called T-IgG1; TIGIT monoclonal antibody

- Kd (hP40 [3]): 0.0349 nM
- koff (hP40 [3]): 4.81e-05 s⁻¹
- kon (hP40 [3]): 1.38e+06 M⁻¹ s⁻¹
- Kd (hBAFF [4]): 0.499 nM
- koff (hBAFF [4]): 0.000169 s⁻¹
- kon (hBAFF [4]): 338000 M⁻¹ s⁻¹
- EC50 (hP40 [5]): 0.084 nM
- EC50 (hBAFF [6]): 0.356 nM
B8: BU1 (bispecific antibody, human IgG1, lambda, L234A L235A)
heavy 1: not shown
light 1: SSELTQDPAVSVALGQTVRVTCQGDSLRSYYASWYQQKPGQAPVLVIYGKNNRPSGIPDRFSGSSSGNTASLTITGAQAEDEADYYCSSRDSSGNHWVFGGGTELTVLGQPKAAPSVTLFPPSSEELQANKATLVCLISDFYPGAVTVAWKADSSPVKAGVETTTPSKQSNNKYAASSYLSLTPEQWKSHRSYSCQVTHEGSTVEKTVAPTECS
heavy 2: EVQLVQSGAEVKKPGESLKISCKGSGYSFTTYWLGWVRQMPGKGLDWIGIMSPVDSDIRYSPSFQGQVTMSVDKSITTAYLQWNSLKASDTAMYYCARRRPGQGYFDFWGQGTLVTVSSGGGGSGIPPKIECLPSDISIDEGKVLTVASAFTGEPTPEVTWSTGGRKIHSQEQGRFHIESTEDLTTLIISDVQKQDGGLYSLSLGNEFGSDSATVNIHIRSIDKTHTCPPCPAPEAAGGPSVFLFPPKPKDTLMISRTPEVTCVVVDVSHEDPEVKFNWYVDGVEVHNAKTKPREEQYNSTYRVVSVLTVLHQDWLNGKEYKCKVSNKALPAPIEKTISKAKGQPREPQVCTLPPSREEMTKNQVSLSCAVKGFYPSDIAVEWESNGQPENNYKTTPPVLDSDGSFFLVSKLTVDKSRWQQGNVFSCSVMHEALHNHYTQKSLSLSPGK
light 2: DIQMTQSPSSLSASVGDRVTITCRASQGISSWLAWYQQKPEKAPKSLIYAASSLQSGVPSRFSGSGSGTDFTLTISSLQPEDFATYYCQQYNIYPYTFGQGTKLEIKGGGGSSGAPRFLTRPLSYVVSVGKDASLSSQIVGNPTPQVSWEKDQLPVTAGARFRLAQDGDLYRLKILDLQLSDSGQYVSRARNAIGEAFACVGLEVGAEA

- EC50 (hP40 [5]): 0.0567 nM
- EC50 (hBAFF [6]): 0.469 nM
B9: BU2 (bispecific antibody, human IgG1, kappa, L234A L235A)
heavy 1: not shown
light 1: not shown
heavy 2: QVQLQQSGAEVKKPGSSVRVSCKASGGTFNNNAINWVRQAPGQGLEWMGGIIPMFGTAKYSQNFQGRVAITADESTGTASMELSSLRSEDTAVYYCARSRDLLLFPHHALSPWGRGTMVTVSSGGGGSGIPPKIECLPSDISIDEGKVLTVASAFTGEPTPEVTWSTGGRKIHSQEQGRFHIESTEDLTTLIISDVQKQDGGLYSLSLGNEFGSDSATVNIHIRSIDKTHTCPPCPAPEAAGGPSVFLFPPKPKDTLMISRTPEVTCVVVDVSHEDPEVKFNWYVDGVEVHNAKTKPREEQYNSTYRVVSVLTVLHQDWLNGKEYKCKVSNKALPAPIEKTISKAKGQPREPQVCTLPPSREEMTKNQVSLSCAVKGFYPSDIAVEWESNGQPENNYKTTPPVLDSDGSFFLVSKLTVDKSRWQQGNVFSCSVMHEALHNHYTQKSLSLSPGK
light 2: SSELTQDPAVSVALGQTVRVTCQGDSLRSYYASWYQQKPGQAPVLVIYGKNNRPSGIPDRFSGSSSGNTASLTITGAQAEDEADYYCSSRDSSGNHWVFGGGTELTVLGGGGSDQPQFSGAPRFLTRPLSYVVSVGKDASLSSQIVGNPTPQVSWEKDQLPVTAGARFRLAQDGDLYRLKILDLQLSDSGQYVSRARNAIGEAFACVGLEVGAEA

- EC50 (hP40 [5]): 0.0443 nM
- EC50 (hBAFF [6]): 0.506 nM
B10: BU4 (bispecific antibody, human IgG1, kappa, L234A L235A)
heavy 1: not shown
light 1: not shown
heavy 2: QVQLQQSGAEVKKPGSSVRVSCKASGGTFNNNAINWVRQAPGQGLEWMGGIIPMFGTAKYSQNFQGRVAITADESTGTASMELSSLRSEDTAVYYCARSRDLLLFPHHALSPWGRGTMVTVSSGGGGSKAGIRGIPPKIECLPSDISIDEGKVLTVASAFTGEPTPEVTWSTGGRKIHSQEQGRFHIESTEDLTTLIISDVQKQDGGLYSLSLGNEFGSDSATVNIHIRSIDKTHTCPPCPAPEAAGGPSVFLFPPKPKDTLMISRTPEVTCVVVDVSHEDPEVKFNWYVDGVEVHNAKTKPREEQYNSTYRVVSVLTVLHQDWLNGKEYKCKVSNKALPAPIEKTISKAKGQPREPQVCTLPPSREEMTKNQVSLSCAVKGFYPSDIAVEWESNGQPENNYKTTPPVLDSDGSFFLVSKLTVDKSRWQQGNVFSCSVMHEALHNHYTQKSLSLSPGK
light 2: B9 light 2

- EC50 (hP40 [5]): 0.224 nM
- EC50 (hBAFF [6]): 0.413 nM
B11: BU3 (bispecific antibody, human IgG1, kappa, L234A L235A)
heavy 1: not shown
light 1: B9 light 2
heavy 2: EVQLVQSGAEVKKPGESLKISCKGSGYSFTTYWLGWVRQMPGKGLDWIGIMSPVDSDIRYSPSFQGQVTMSVDKSITTAYLQWNSLKASDTAMYYCARRRPGQGYFDFWGQGTLVTVSSASTKGPSVFPLAPSSKSTSGGTAALGCLVKDYFPEPVTVSWNSGALTSGVHTFPAVLQSSGLYSLSSVVTVPSSSLGTQTYICNVNHKPSNTKVDKKVEPKSCDKTHTCPPCPAPEAAGGPSVFLFPPKPKDTLMISRTPEVTCVVVDVSHEDPEVKFNWYVDGVEVHNAKTKPREEQYNSTYRVVSVLTVLHQDWLNGKEYKCKVSNKALPAPIEKTISKAKGQPREPQVCTLPPSREEMTKNQVSLSCAVKGFYPSDIAVEWESNGQPENNYKTTPPVLDSDGSFFLVSKLTVDKSRWQQGNVFSCSVMHEALHNHYTQKSLSLSPGK
light 2: not shown

- EC50 (hTSLP): 0.08 nM
B12: J0 (antibody, human IgG1, lambda)
heavy: not shown
light: SYELTQPLSVSVALGQTARITCSGDNIGSKYVHWYQQKPGQAPVLVIYGDNERPSGIPERFSGSNSGNTATLTISRAQAGDEADYYCQAADWVDFYVFGGGTKLTVLGQPKAAPSVTLFPPSSEELQANKATLVCLISDFYPGAVTVAWKADSSPVKAGVETTTPSKQSNNKYAASSYLSLTPEQWKSHRSYSCQVTHEGSTVEKTVAPTECS
